In publication PMC6101569:

Key:
[1] = target: APLF^AD labelled with the fluorescent tag NT-647 (human) (UniProt Q8IW19); experiment: MST
[2] = target: APLF acidic domain (APLF^AD), Homo sapiens APLF residues 450-511, wild type (human) (UniProt Q8IW19); experiment: cross-linking
Sequence of APLF acidic domain (APLF^AD), Homo sapiens APLF residues 450-511, wild type (human) (Q8IW19 450-511): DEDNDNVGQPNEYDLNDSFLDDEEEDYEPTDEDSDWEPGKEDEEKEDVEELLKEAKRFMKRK

Sequence of APLF^AD labelled with the fluorescent tag NT-647 (human) (Q8IW19 450-511): as above

Row | Substance | KD of the secondary binding over KD of the high-affinity binding (fold) [1] | KD,1 (high-affinity binding event, sequential-binding model) [1] | stoichiometry N [2]
1 | (H3-H4)2 histone tetramer from Drosophila melanogaster (from UniProt P02299 2-136; P84040 2-103) (complex) | 50 fold | 1.4 µM | –
2 | H2A-H2B histone dimer from Drosophila melanogaster (from UniProt P84051 2-121; P02283 2-123) (complex) | – | 0.8 µM | 1
